Test results from patent US20170267762A1 (APOLLOMICS, published 2017).
Each block holds one binder with its values, some of them ahead of it.

Experiments:
[1] = biological target: T1, human PD-1 extracellular domain fused with human Fc tag (hPD-1-hFc) (human); assay: ELISA binding (summary table)
T1 construct: also called human PD-1-hFc
Method: (§1) ELISA binding analysis was conducted based on human PD-1-hFc Protein. 96-well plates (Costar, Cat No:9018) were coated with 100 μL of 2 μg/ml PD1-hFc (CrownBio) in coating buffer (PBS, Hyclone, Cat No:SH30256.01B) overnight at 4° C. The wells were aspirated and non-specific binding sites were blocked by adding 200 μL of blocking buffer with 1% (w/v) of bovine serum albumin (BSA, Roche, Cat No: 738328) and incubating for 1 hour at 37° C. After the plates are washed three times with wash buffer (PBS with 0.05%(v/v) Tween20 (Sigma, Cat No:P1379), 100 μL/well of a suitable dilutions of hybridoma supernatant in blocking buffer were added and incubated at room temperature for 1 hour. The plates were washed and incubated with 100 μL/well of Goat anti-Mouse IgG (H+L) (Thermo, Cat No: 31432) in blocking buffer for 60 min. After the plates were washed, 100 μL/well of substrate solution (TMB(eBioscience, Cat No:00-4201-56) was added and the plates were incubated for 2min at room temperature. 100 μL/well of stop solution (2N H2SO4) was added to stop the reaction. The colorimetric signals were developed and read at 450 nm using a Auto Plate SpectraMax Plus (Supplier: Molecular Devices; Model: MNR0643; Software: SoftMax Pro v5.4).
(§2) The purified hybridoma antibodies were characterized further based on ELISA and FACS analyses.

human CTLA4 = biological target: T2, human CTLA4 (human, UniProt P16410 36-161, limits assumed); assay: Interaction with CTLA4, ICOS CD28; assay not detailed
T2 sequence (looked up): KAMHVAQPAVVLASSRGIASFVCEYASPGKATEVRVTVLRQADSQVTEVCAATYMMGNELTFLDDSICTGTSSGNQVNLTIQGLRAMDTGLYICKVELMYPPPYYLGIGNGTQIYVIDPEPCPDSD

human CD28 = human CD28 (human, UniProt P10747 19-152, limits assumed); assay: as above
Chain of human CD28 (P10747 19-152 limits assumed): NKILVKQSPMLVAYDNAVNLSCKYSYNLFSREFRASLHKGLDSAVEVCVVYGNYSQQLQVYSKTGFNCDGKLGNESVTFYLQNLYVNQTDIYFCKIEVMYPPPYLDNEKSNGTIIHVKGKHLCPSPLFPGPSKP

human ICOS = biological target: T3, human ICOS (human, UniProt Q9Y6W8 21-140, limits assumed); assay: as above
T3 sequence (looked up): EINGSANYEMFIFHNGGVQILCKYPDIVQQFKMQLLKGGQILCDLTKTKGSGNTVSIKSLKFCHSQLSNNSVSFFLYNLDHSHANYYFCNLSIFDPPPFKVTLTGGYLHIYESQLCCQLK

[2] = biological target: T4, human PD-1 (construct not stated) (human, UniProt Q15116 25-167, limits assumed); assay: Biacore, antibody captured, PD-1 analyte
T4 construct: also called PD-1 analyte
T4 sequence (Q15116 25-167 limits assumed): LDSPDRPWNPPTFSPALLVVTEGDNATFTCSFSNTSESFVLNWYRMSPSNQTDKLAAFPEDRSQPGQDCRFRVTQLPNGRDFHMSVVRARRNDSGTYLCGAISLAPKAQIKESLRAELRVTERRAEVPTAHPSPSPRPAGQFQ
Method: (§3) To further characterize the binding characteristics of the antibodies, 10 hybridoma antibodies were profiled using Biacore (Biacore 3000, GE) to elucidate binding kinetics and calculate equilibrium binding constants. This assay was performed by capture method, using the mouse antibody capture kit (BR-1008-38, GE). After diluting anti-mouse Fc mab to 25 μg/ml in pH 5.0 immobilization buffer, immobilization was conducted with the parameters shown in Table 6 at a flow rate of 5 μl/min. The kinetic runs were done by 1) injecting ligand for typical 0.5-1 min at flow rate of 10 μl/min.; 2) injecting analytes of choice for typical 3 min followed by dissociation in running buffer (1× PBS-P20) for typical 5-10 min at flow rate of 30 μl/min.; and 3) injecting regeneration solution 10 mM Glycine pH1.7 for typical 1-2 min at flow rate of 10 μl/min.

[3] = biological target: T5, human PD-1 on cells (293T cells transfected with human PD-1) (human, UniProt Q15116 25-288); assay: FACS on hPD-1-293T cells
T5 construct: whole, on cells; Also used as the target for the functional rows, where PD-1 stands on human T cells
T5 sequence (Q15116 25-288): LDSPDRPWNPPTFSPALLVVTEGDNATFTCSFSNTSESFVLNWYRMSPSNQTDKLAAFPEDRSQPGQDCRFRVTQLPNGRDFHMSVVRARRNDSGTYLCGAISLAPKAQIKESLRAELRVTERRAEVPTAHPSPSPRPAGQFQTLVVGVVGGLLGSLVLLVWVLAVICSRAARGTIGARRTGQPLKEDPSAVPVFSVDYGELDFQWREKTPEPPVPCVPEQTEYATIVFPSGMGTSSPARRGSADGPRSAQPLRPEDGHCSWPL
Method: (§4) The cells were incubated with the indicated antibody (20 ug/ml with the dilution of ⅕) at 4° C. for 1 h. Cells were washed three times with FACS buffer. A secondary antibody (PE Goat anti-mouse: 1:200; PE mouse anti-human: 1:10) was added to the cells at 100 ul/well, and incubated at 4° C. for 40min. Cells were washed three times with FACS buffer and analyzed by FACS Array.
as §2

[4] = biological target: T4, human PD-1 (construct not stated); assay: Biacore (summary table; unit from Table 7)
Method: as §3

[5] = biological target: T6, human PD-1 extracellular domain fused with mouse Fc (PD-1-mFc) (human, UniProt Q15116 25-170); assay: blockage ELISA, coated PD-1-mFc, competitor PDL-1-mFc-biotin
T6 construct: extracellular domain; not used because of the label; also called hPD-1-mFc; human PD-1-mouse Fc fusion protein
T6 sequence (Q15116 25-170): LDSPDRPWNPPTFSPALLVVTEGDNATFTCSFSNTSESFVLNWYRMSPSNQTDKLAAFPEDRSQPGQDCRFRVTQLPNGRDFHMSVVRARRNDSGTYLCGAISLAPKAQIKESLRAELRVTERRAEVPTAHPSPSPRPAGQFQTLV
Method: (§5) PD-1-mFc antigen (CrownBio) was suspended in PBS (Hyclone,Cat No:SH30256.01B) buffer (2 ug/ml, 100 ul/ well) and coated on the 96 well plate (costar, Cat No.:9018) 4° C. overnight. Plates were washed 3 times using washing buffer: PBS+0.05% Tween 20(Sigma, Cat No.:P1379). 200 ul of blocking buffer (PBS+1%BSA(Roche, Cat No.:738328)), was added to each well, incubated at 37° C. for 1 hour, and washed 3 times. Various concentrations (suitable dilutions of hybridoma supernatant in PBS) of the anti-PD-1 Abs were added to the wells (100 μl/well) and incubated at 37° C. for 1 hour. […] Secondary antibody (Avidin HRP eBioscience cat No.:E07418-1632, 1:500, 100 ul/well) was added, incubated at 37 ° C. for 0.5 hour, and washed 3 times. TMB (Sigma, Cat No.: T0440, 100 ul/well) was added, and incubated for 3 min at RT. To stop the reaction, 2N H2SO4 (100 ul/well), was added. The colorimetric signals were developed and read at 450 nm using a Auto Plate SpectraMax Plus (Supplier: Molecular Devices; Model: MNR0643; Software: SoftMax Pro v5.4).
as §2

[6] = biological target: T5, human PD-1 on cells (293T cells …); assay: FACS blockage on hPD-1-293T cells, competitor biotin PD-L1
Method: (§6) Various concentrations of the testing hybridoma antibodies were added to the cell suspension and incubated at 4° C. for 60 minutes in 96 well plates. […] Plates were washed 3 times, and mouse anti-biotin PE antibody (Biolgend, cat# 409004) was added. Flow cytometric analyses were performed using a FACS Array.
as §2

[7] = biological target: T5, human PD-1 on cells (293T cells …); assay: FACS blockage on hPD-1-293T cells, competitor biotin PD-L2
Method: as §6, §2

[8] = biological target: T6, human PD-1 extracellular domain fused …; assay: blockage ELISA, competitor PDL-1-mFc-biotin (summary table; IC50 in ng/ml in Table 2)
Method: as §5

mouse PD-1 = biological target: T7, mouse PD-1 (mouse, UniProt Q02242 25-169, limits assumed); assay: assays not detailed
T7 sequence (looked up): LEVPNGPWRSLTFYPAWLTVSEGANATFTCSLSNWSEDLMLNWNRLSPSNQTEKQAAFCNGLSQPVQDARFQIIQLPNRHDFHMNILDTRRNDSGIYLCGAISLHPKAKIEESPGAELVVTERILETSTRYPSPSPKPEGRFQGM

[9] = biological target: T1, human PD-1 extracellular domain fused …; assay: ELISA on coated PD1-hFc
Method: as §1, §2

[10] = biological target: T6, human PD-1 extracellular domain fused …; assay: ELISA ligand blockage: biotinylated PD-L1-mFc binding to plate-bound PD-1, OD450 (methods similar to Example 2: PD-1-mFc coated)
Method: as §5

[11] = biological target: T4, human PD-1 (construct not stated); assay: SPR (Biacore 3000), antibody captured on the chip, PD-1 as analyte, 1:1 Langmuir fit
Method: To characterize the binding characteristics of the humanized antibodies, the binding kinetics between PD-1 and PD-1 antibodies were measured by Biacore3000 and recorded with a data collection rate of 1 Hz. The polyclonal rabbit anti-mouse IgG (GE, BR-1008-38) was diluted with 10 mM pH 5.0 sodium acetate and immobilized onto reference and experiment flow cells of a CMS biosensor chip to around 15000 RU using an amine coupling kit (GE, BR10050). In the beginning of each cycle, diluted test antibody (1.5 μg/mL) was injected over experiment flow cell for 1 minute to be captured. PD-1 analyte series were prepared by diluting the stocks with running buffer to 100nM followed by 2× serial dilution in the same buffer down to 0.78nM. Analytes were injected in series over the reference and experiment flow cells for 3 minutes at a flow rate of 30 μL/minute. Then running buffer (PBS with 0.05% P20) was allowed to flow over for 10 minutes at a flow rate of 30 μL/minute. At the end of each cycle, the biosensor surface was regenerated with 3 minutes injection of 10 mM pH1.7 Glycine-HC1 buffer at a flow rate of 10 μL/minute. For each analyte sample injection (i.e. each cycle), binding responses obtained from the experimental biosensor surface were double referenced by subtracting simultaneously recorded responses from the reference surface followed by additional subtraction of responses from a single referenced running buffer sample. The association and dissociation rate constants (ka and kd) were determined simultaneously by fitting double-referenced sensorgrams of the entire titration series to Langmuir model (1:1) using Biaevaluation 4.0 software. The dissociation constant, KD, was calculated from the determined rate constants by the relation KD =kd/ka. […] The Biocore binding curves are shown in FIGS. 10 and 17A, top panel, and the quantified binding data are summarized in FIGS. 10 and 17A, bottom panel.

[12] = biological target: T5, human PD-1 on cells (293T cells …); assay: FACS binding to 293T cells expressing human PD-1, MFI
Method: as §4

[13] = biological target: T5, human PD-1 on cells (293T cells …); assay: FACS ligand blockage: biotin-labeled PD-L1 binding to 293T cells expressing human PD-1, MFI
Method: as §6

[14] = biological target: T1, human PD-1 extracellular domain fused …; assay: ELISA binding to plate-bound PD-1, OD450 (methods similar to Example 2: plate coated with PD1-hFc)
Method: as §1

T1 sequence (chain, as listed by the source limits assumed): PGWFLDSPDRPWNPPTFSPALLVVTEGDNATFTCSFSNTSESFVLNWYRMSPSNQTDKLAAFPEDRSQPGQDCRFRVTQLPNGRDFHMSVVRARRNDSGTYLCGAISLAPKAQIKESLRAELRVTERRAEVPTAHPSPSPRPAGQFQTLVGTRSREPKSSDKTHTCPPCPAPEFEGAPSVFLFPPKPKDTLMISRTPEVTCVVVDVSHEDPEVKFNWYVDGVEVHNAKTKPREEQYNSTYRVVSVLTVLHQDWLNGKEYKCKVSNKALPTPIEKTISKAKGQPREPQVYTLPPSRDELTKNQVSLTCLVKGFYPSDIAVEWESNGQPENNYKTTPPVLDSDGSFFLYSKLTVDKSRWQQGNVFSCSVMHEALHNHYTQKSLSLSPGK

IC50 [10]: 0.579 µg/mL
Ka [11]: 5.78e+09 M⁻¹
Kd [11]: 0.173 nM
koff [11]: 0.000119 s⁻¹
kon [11]: 687000 M⁻¹ s⁻¹
EC50 [12]: 0.0763 µg/mL
IC50 [13]: 0.026 µg/mL
EC50 [14]: 0.031 µg/mL
B2: humanized 13F1-hIgG4 (antibody)
heavy: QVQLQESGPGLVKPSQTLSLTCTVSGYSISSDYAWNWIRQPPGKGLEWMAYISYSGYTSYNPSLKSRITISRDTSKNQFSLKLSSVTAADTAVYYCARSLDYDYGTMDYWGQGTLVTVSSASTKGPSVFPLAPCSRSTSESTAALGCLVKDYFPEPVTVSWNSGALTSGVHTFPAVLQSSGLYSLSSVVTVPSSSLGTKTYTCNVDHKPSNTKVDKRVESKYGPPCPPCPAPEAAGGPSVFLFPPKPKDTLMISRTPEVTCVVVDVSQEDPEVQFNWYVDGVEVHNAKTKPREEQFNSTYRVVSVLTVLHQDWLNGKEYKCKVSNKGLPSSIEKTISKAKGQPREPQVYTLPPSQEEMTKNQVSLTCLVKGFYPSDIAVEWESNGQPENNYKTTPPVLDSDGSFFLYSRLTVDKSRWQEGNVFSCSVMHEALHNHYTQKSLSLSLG
light: EIVLTQSPATLSLSPGERATLSCRANSSVSSMHWYQQKPGQSPEPWIYAISNLAFGVPARFSGSGSGTDYTLTISSLEPEDFAVYYCQQWSSRPPTFGQGTKLEIKRTVAAPSVFIFPPSDEQLKSGTASVVCLLNNFYPREAKVQWKVDNALQSGNSQESVTEQDSKDSTYSLSSTLTLSKADYEKHKVYACEVTHQGLSSPVTKSFNRGEC
notes: IgG4 constant region with F234A and L235A, already in the entry; also called h13F1-IgG4; hu-13F1-hIgG4

IC50 [10]: 0.985 µg/mL
EC50 [12]: 0.0668 µg/mL
IC50 [13]: 0.0295 µg/mL
EC50 [14]: 0.0357 µg/mL
B3: humanized 13F1-hIgG1 (antibody)
heavy: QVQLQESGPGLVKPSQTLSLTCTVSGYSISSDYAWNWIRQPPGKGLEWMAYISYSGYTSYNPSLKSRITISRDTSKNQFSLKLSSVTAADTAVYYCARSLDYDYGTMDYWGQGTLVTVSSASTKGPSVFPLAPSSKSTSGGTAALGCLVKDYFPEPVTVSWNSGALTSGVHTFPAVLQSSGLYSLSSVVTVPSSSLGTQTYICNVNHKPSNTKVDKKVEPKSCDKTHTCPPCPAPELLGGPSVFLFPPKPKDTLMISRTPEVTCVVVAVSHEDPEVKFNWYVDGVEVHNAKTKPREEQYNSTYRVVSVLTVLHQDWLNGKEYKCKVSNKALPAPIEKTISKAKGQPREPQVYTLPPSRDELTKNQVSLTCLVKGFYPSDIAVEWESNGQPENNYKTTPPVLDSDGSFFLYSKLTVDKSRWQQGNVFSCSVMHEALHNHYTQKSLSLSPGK
light: B2 light
notes: IgG1 constant region with D265A, already in the entry; also called h13F1-IgG1; hu-13F1-hIgG1

IC50 [10]: 0.886 µg/mL
Ka [11]: 2.93e+09 M⁻¹
Kd [11]: 0.342 nM
koff [11]: 0.000498 s⁻¹
kon [11]: 1.46e+06 M⁻¹ s⁻¹
EC50 [12]: 0.0621 µg/mL
IC50 [13]: 0.0169 µg/mL
EC50 [14]: 0.0707 µg/mL
B4: humanized 7A4-hIgG4 (antibody)
heavy: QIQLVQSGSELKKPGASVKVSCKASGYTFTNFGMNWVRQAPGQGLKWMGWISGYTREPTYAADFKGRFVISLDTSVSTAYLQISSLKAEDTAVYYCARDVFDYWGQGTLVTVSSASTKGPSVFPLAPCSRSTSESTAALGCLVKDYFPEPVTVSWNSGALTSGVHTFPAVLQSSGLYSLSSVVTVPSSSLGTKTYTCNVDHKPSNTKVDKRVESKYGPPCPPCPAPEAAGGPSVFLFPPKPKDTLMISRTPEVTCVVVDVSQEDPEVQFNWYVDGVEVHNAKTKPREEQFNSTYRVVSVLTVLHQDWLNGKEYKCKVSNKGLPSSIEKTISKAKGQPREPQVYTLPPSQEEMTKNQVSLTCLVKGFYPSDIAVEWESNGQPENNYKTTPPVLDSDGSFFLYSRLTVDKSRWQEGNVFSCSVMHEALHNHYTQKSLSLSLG
light: DIVLTQSPASLAVSPGQRATITCRASESVDNYGYSFMNWFQQKPGQPPKLLIYRASNLESGVPARFSGSGSRTDFTLTINPVEANDTANYYCQQSNADPTFGQGTKLEIKRTVAAPSVFIFPPSDEQLKSGTASVVCLLNNFYPREAKVQWKVDNALQSGNSQESVTEQDSKDSTYSLSSTLTLSKADYEKHKVYACEVTHQGLSSPVTKSFNRGEC
notes: IgG4 constant region with F234A and L235A, already in the entry; also called h7A4-IgG4; 7A4-huIgG4

Second part, the binder before the results:

B1: 4C10 murine anti-PD-1 antibody (antibody, V domains shown)
VH: QVQLKQSGPGLVQPSQNLSVTCTVSGFSLTTYGVHWVRQSPGKGLEWLGVIWSGGSTDYNAAFISRLTISKDNARSQVFFKMNSLQVNDTAMYYCAREKSVYGNYVGAMDYWGQGTSVTVSS
VL: SIVMTQTPKFLLVSAGDRVTITCKASQSVSDDVAWYQQKPGQSPKLLIYYAFNRYTGVPDRFTGSGYGTDFTFTISTVQSEDLAVYFCQQDYRSPWTFGGGTKLEIKR
notes: Purified hybridoma antibody; also called 4C10-mIgG1
EC50 [1]: 0.0132 µg/mL
binding result (human CTLA4): no binding
binding result (human CD28): no binding
binding result (human ICOS): no binding
Ka [2]: 3.01e+10 M⁻¹
Kd [2]: 0.0332 nM
koff [2]: 2.63e-05 s⁻¹
kon [2]: 791000 M⁻¹ s⁻¹
EC50 [3]: 0.109 µg/mL
Kd [4]: 0.0332 nM
IC50 [5]: 1.46 µg/mL
IC50 [6]: 0.0833 µg/mL
IC50 [7]: 0.251 µg/mL
IC50 [8]: 1.46 µg/mL
binding result (mouse PD-1): no binding
EC50 [9]: 0.0132 µg/mL

B5: humanized 7A4-hIgG1 (antibody)
heavy: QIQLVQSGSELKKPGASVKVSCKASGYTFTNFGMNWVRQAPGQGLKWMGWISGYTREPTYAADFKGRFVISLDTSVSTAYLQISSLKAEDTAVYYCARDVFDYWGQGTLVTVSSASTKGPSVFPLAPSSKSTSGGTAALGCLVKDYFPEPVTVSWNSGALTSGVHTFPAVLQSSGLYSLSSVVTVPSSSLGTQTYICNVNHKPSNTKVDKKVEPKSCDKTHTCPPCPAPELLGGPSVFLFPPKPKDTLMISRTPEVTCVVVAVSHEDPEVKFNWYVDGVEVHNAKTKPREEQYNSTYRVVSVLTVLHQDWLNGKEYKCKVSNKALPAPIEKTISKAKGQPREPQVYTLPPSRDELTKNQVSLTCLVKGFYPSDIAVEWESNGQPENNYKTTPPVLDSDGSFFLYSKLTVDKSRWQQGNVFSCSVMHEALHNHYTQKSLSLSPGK
light: B4 light
notes: IgG1 constant region with D265A, already in the entry; also called h7A4-IgG1; hu-7A4-D265A-hIgG1
IC50 [10]: 0.763 µg/mL
Ka [11]: 9.82e+09 M⁻¹
Kd [11]: 0.102 nM
koff [11]: 0.000212 s⁻¹
kon [11]: 2.09e+06 M⁻¹ s⁻¹
EC50 [12]: 0.0332 µg/mL
IC50 [13]: 0.00761 µg/mL
EC50 [14]: 0.0331 µg/mL
